Experimental data from publication PMC3630358.

Molecular target: TraF/VirB10 C-terminal domain starting at N161 (elastase-cleaved, C-terminal Strep-tag) (Escherichia coli (plasmid pKM101)) (UniProt Q46705)
Assay: cryo-EM structure

“TraF/VirB10 C-terminal domain starting at N161 (elastase-cleaved, C-terminal Strep-tag) (from UniProt Q46705 161-386) (domain or fragment)” showed a stoichiometry N of 14.
